Measured values published in patent publication US20240024501A1 (BONUM THERAPEUTICS, published 2024).

B1: PD1-R04-C10 (scFv)
chain: MSTSTEQKLISEEDLQVQLVQSGAEVKKPGASVKVSCKASGYTFTTYYMHWVRQAPGQGLEWMGIINPSGGGTLYAQKFQGRVTMTRDTSTSTVYMELSSLRSEDTAVYYCAAGLFIWGQGTTVTVSSASGGGGSGGGGSGGGGSHASDIVMTQSPDSLAVSLGERATINCKASQSLLHSSSNKNYLAWYQQKPGQPPKLLIYWASTRESGVPDRFSGSGSGTDFTLTISSLQAEDVAVYYCQQYYSTPITFGPGTKVDIKGSGLNDIFEAQKIEWHEGKPIPNPLLGLDST
B2: PD1-IL2-R02-A11 (scFv)
scFv: QVQLVQSGAEVKKPGASVKVSCKASGHTFTRYYMHWVRQAPGQGLEWMGIINPSGGYATYAQKFQGRVTMTRDTSTSTVYMELSSLRSEDTAVYYCASGWDVWGQGTLVTVSSASGGGGSGGGGSGGGGSHASDIQMTQSPSSLSASVGDRVTITCRASQSINSWLAWYQQKPGKAPKLLIYATSTLESGVPSRFSGSGSGTDFTLTISSLQPEDFATYYCQQSYSFPPTFGQGTKVEIK
B3: PD1-IL2-R02-C02 (scFv)
scFv: QVQLVQSGAEVKKPGVSVKVSCKASGYTFPRSYIHWVRQAPGQGLEWMGWINPHSGDTYYAQNFQGRVTMTRDTSTSTVYMELSSLRSEDTAVYYCARDTGLGYYYGSGDFDYWGQGTLVTVSSASGGGGSGGGGSGGGGSHASDIQMTQSPSSLSASVGDRVTITCRASQSISRYLNWYQQKPGKAPKLLIYTASSLQSGVPSRFSGSGSGTDFTLTISSLQPEDFATYYCQQANRFPLTFGPGTKVDIK
notes: cell-free expressed, V5-tagged
B4: PD1-IL2-R07-A04 (scFv)
scFv: QVQLVQSGAEVKKPGASVKVSCKASGYTFTDYYMHWVRQAPGQGLEWMGIINPRAGYTSYALKFQGRVTMTRDTSTSTVYMELSSLRSEDTAVYYCTSGMDVWGQGTLVTVSSASGGGGSGGGGSGGGGSHASDIQMTQSPSSLSASVGDRVTITCRASQSISTWLAWYQQKPGKAPKLLIYAASSLQSGVPSRFSGSGSGTDFTLTISSLQPEDFATYYCQQSYSFPVTFGQGTKVEIK
B5: PD1-IL2-R02-A08 (scFv)
scFv: QVQLVQSGAEVKKPGASVKVSCKVSGYTFTSYDINWVRQAPGQGLEWMGWINPNSGDTGYAQKFQGRVTMTRDTSTSTVYMELSSLRSEDTAVYYCARDTGLGYYYGSGDFDYWGQGTLVTVSSASGGGGSGGGGSGGGGSHASDIQMTQSPSSLSASVGDRVTITCQASQDIHNYLNWYQQKPGKAPKLLIYDVSNLETGVPSRFSGSGSGTDFTLTISSLQPEDFATYYCQQAISFPLTFGGGTKVEIK
B6: PD1-IL2-R06-E04 (scFv)
scFv: QVQLVQSGAEVKKPGASVKVSCKASGYTFTRYYIHWVRQAPGQGLEWMGWINAYNGDTNYAQKLQGRVTMTRDTSTSTVYMELSSLRSEDTAVYYCARDSYYYDSFDYWGQGTLVTVSSASGGGGSGGGGSGGGGSHASDIQMTQSPSSLSASVGDRVTITCRASQTITDWLAWYQQKPGKAPKLLIYGASNLQGGVPSRFSGSGSGTDFTLTISSLQPEDFATYYCQQYYSSWTFGQGTKVEIK
notes: as for B3
B7: PD1-IL2-R02-C03 (scFv)
scFv: QVQLVQSGAEVKKPGASVKVSCKASGYTFPRYHIHWVRQAPGQGLEWMGMINPSGGTTTYAQKFQGRVTMTRDTSTSTVYMELSSLRSEDTAVYYCARDTGLGYYYGSGDFDYWGQGTLVTVSSASGGGGSGGGGSGGGGSHASDIQMTQSPSSLSASVGDRVTITCRASQSISSWLAWYQQKPGKAPKLLIYAASSLQSGVPSRFSGSGSGTDFTLTISSLQPEDFATYYCQQSHSFPLTFGGGTKVEIK
notes: as for B3
B8: PD1-IL2-R07-A09 (scFv)
scFv: QVQLVQSGAEVKKPGASVKVSCKASGYTFTSYYMHWVRQAPGQGLEWMGIINPSDGSTTYAQSFQGRVTMTRDTSTSTVYMELSSLRSEDTAVYYCASGWDVWGQGTLVTVSSASGGGGSGGGGSGGGGSHASDIVMTQSPDSLAVSLGERATINCKSSQSVFSSANNKNYLAWYQQKPGQPPKLLIYWASTRESGVPDRFSGSGSGTDFTLTISSLQAEDVAVYYCQQYFGTPVTFGGGTKVEIK
notes: as for B3
B9: PD1-IL2-R02-B07 (scFv)
scFv: QVQLVQSGAEVKKPGASVKVSCKASGDTFTRHYVHWVRQAPGQGLEWMGIINPSGGYASYAQKFQGRVTMTRDTSTSTVYMELSSLRSEDTAVYYCAAGLFIWGQGTLVTVSSASGGGGSGGGGSGGGGSHASDIQMTQSPSSLSASVGDRVTITCRASQSIGRWLAWYQQKPGKAPKLLIYSASNLETGVPSRFSGSGSGTDFTLTISSLQPEDFATYYCQQANSFPVTFGPGTKVDIK
B10: PD1-IL2-R02-B05 (scFv)
scFv: QVQLVQSGAEVKKPGASVKVSCKASGYTFTNYYIHWVRQAPGQGLEWMGIINPRAGYTSYALKFQGRVTMTRDTSTSTVYMELSSLRSEDTAVYYCAGGWLDWGQGTLVTVSSASGGGGSGGGGSGGGGSHASDIQMTQSPSSLSASVGDRVTITCRASQSISSWLAWYQQKPGKAPKLLIYAASSLQSGVPSRFSGSGSGTDFTLTISSLQPEDFATYYCQQSFTMPITFGQGTRLEIK
B11: AF4386 (other)
heavy 1: APTSSSTKKTQLQLEHLLLDLQMILNGINNYKNPKLTDMLTFEFYMPKKATELKHLQCLERELKPLEEVLNLAQSKNFHLRPRDLISNINVIVLELKGSETTFMCEYADETATIVEFLNRWITFCQSIISTLTGGGGSGGGGSGGGGSGGGGSQVQLVQSGAEVKKPGASVKVSCKASGDTFTRYYVHWVRQAPGQGLEWMGIINPSGGYASYAQKFQGRVTMTRDTSTSTVYMELSSLRSEDTAVYYCAAGLFIWGQGTLVTVSSAKTTAPSVYPLAPVCGDTTGSSVTLGCLVKGYFPEPVTLTWNSGSLSSGVHTFPAVLQSDLYTLSSSVTVTSSTWPSQSITCNVAHPASSTKVDKKIEPRGPTIKPCPPCKCPAPNAAGGPSVFIFPPKIKDVLMISLSPIVTCVVVDVSEDDPDVQISWFVNNVEVHTAQTQTHREDYNSTLRVVSALPIQHQDWMSGKEFKCKVNNKDLGAPIERTISKPKGSVRAPQVYVLPPPEEEMTKKQVTLTCMVTDFMPEDIYVEWTNNGKTELNYKNTEPVLDSDGSYFMYSDLRVEKKNWVERNSYSCSVVHEGLHNHHTTESFSRTPGK
heavy 2: QVQLVQSGAEVKKPGASVKVSCKASGDTFTRYYVHWVRQAPGQGLEWMGIINPSGGYASYAQKFQGRVTMTRDTSTSTVYMELSSLRSEDTAVYYCAAGLFIWGQGTLVTVSSAKTTAPSVYPLAPVCGDTTGSSVTLGCLVKGYFPEPVTLTWNSGSLSSGVHTFPAVLQSDLYTLSSSVTVTSSTWPSQSITCNVAHPASSTKVDKKIEPRGPTIKPCPPCKCPAPNAAGGPSVFIFPPKIKDVLMISLSPIVTCVVVDVSEDDPDVQISWFVNNVEVHTAQTQTHREDYNSTLRVVSALPIQHQDWMSGKEFKCKVNNKDLGAPIERTISKPKGSVRAPQVYVLPPPEKEMTKKQVSLTCLVKDFMPEDIYVEWTNNGKTELNYKNTEPVLKSDGSYFMYSKLTVEKKNWVERNSYSCSVVHEGLHNHHTTKSFSRTPGGGGSGGGSHHHHHH
light: DIQMTQSPSSLSASVGDRVTITCRASQSIGRYLAWYQQKPGKAPKLLIYSASNLETGVPSRFSGSGSGTDFTLTISSLQPEDFATYYCQQYNSFPVTFGPGTKVDIKRADAAPTVSIFPPSSEQLTSGGASVVCFLNNFYPKDINVKWKIDGSERQNGVLNSWTDQDSKDSTYSMSSTLTLTKDEYERHNSYTCEATHKTSTSPIVKSFNRNEC
B12: AF4387 (other)
heavy 1: APTSSSTKKTQLQLEHLLLDLQMILNGINNYKNPKLTDMLTFEFYMPKKATELKHLQCLERELKPLEEVLNLAQSKNFHLRPRDLISNINVIVLELKGSETTFMCEYADETATIVEFLNRWITFCQSIISTLTGGGGSGGGGSGGGGSGGGGSQVQLVQSGAEVKKPGASVKVSCKASGYTFTDYYMHWVRQAPGQGLEWMGIINPRAGYTSYALKFQGRVTMTRDTSTSTVYMELSSLRSEDTAVYYCTSGWDVWGQGTLVTVSSAKTTAPSVYPLAPVCGDTTGSSVTLGCLVKGYFPEPVTLTWNSGSLSSGVHTFPAVLQSDLYTLSSSVTVTSSTWPSQSITCNVAHPASSTKVDKKIEPRGPTIKPCPPCKCPAPNAAGGPSVFIFPPKIKDVLMISLSPIVTCVVVDVSEDDPDVQISWFVNNVEVHTAQTQTHREDYNSTLRVVSALPIQHQDWMSGKEFKCKVNNKDLGAPIERTISKPKGSVRAPQVYVLPPPEEEMTKKQVTLTCMVTDFMPEDIYVEWTNNGKTELNYKNTEPVLDSDGSYFMYSDLRVEKKNWVERNSYSCSVVHEGLHNHHTTESFSRTPGK
heavy 2: QVQLVQSGAEVKKPGASVKVSCKASGYTFTDYYMHWVRQAPGQGLEWMGIINPRAGYTSYALKFQGRVTMTRDTSTSTVYMELSSLRSEDTAVYYCTSGWDVWGQGTLVTVSSAKTTAPSVYPLAPVCGDTTGSSVTLGCLVKGYFPEPVTLTWNSGSLSSGVHTFPAVLQSDLYTLSSSVTVTSSTWPSQSITCNVAHPASSTKVDKKIEPRGPTIKPCPPCKCPAPNAAGGPSVFIFPPKIKDVLMISLSPIVTCVVVDVSEDDPDVQISWFVNNVEVHTAQTQTHREDYNSTLRVVSALPIQHQDWMSGKEFKCKVNNKDLGAPIERTISKPKGSVRAPQVYVLPPPEKEMTKKQVSLTCLVKDFMPEDIYVEWTNNGKTELNYKNTEPVLKSDGSYFMYSKLTVEKKNWVERNSYSCSVVHEGLHNHHTTKSFSRTPGGGGSGGGSHHHHHH
light: DIQMTQSPSSLSASVGDRVTITCRASQSISTWLAWYQQKPGKAPKLLIYAASSLDSGVPSRFSGSGSGTDFTLTISSLQPEDFATYYCQQSYSFPVTFGQGTKVEIKRADAAPTVSIFPPSSEQLTSGGASVVCFLNNFYPKDINVKWKIDGSERQNGVLNSWTDQDSKDSTYSMSSTLTLTKDEYERHNSYTCEATHKTSTSPIVKSFNRNEC

Target: PD-1 (human, UniProt Q15116 25-167, limits assumed)
Sequence (Q15116 25-167 limits assumed): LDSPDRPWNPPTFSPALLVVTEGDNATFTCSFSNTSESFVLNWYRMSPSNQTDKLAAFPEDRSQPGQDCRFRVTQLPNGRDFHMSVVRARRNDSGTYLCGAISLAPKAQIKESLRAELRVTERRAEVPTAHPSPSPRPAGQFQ
Assay: HTRF
Description: (§1) The PURExpress scFv proteins were used directly in HTRF binding assays and cell-based functional assays.

| PD1 Binding (HTRF signal) | Binder |
| --- | --- |
| 1550 | B1 |
| 1620 | B2 |
| 1300 | B3 |
| 730 | B4 |
| 995 | B5 |
| 50 | B6 |
| 1380 | B7 |
| 1240 | B8 |
| 1680 | B9 |
| 1660 | B10 |

Target: T1, human IL-2 (human, UniProt P60568 21-153, biotin label in the IL2RB blocking assay)
T1 construct: also called biotin-labeled IL-2 (Acro Biosystems IL2-H82E4)
T1 sequence (P60568 21-153 limits assumed): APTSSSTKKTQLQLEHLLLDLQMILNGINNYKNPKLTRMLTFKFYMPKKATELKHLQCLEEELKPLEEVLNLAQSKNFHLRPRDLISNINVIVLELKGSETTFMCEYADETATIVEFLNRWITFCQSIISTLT
Assay: HTRF
Description: as §1

| IL2 Binding (HTRF signal) | Binder |
| --- | --- |
| 4 | B1 |
| 1560 | B2 |
| 298 | B3 |
| 973 | B4 |
| 520 | B5 |
| 247 | B6 |
| 293 | B7 |
| 2040 | B8 |
| 628 | B9 |
| 2490 | B10 |

Target: PD-1-Fc (UniProt Q15116 25-167, limits assumed)
Sequence (Q15116 25-167 limits assumed): as the sequence (Q15116 25-167 limits assumed) above
Assay: cell-based or functional assay

| EC50 of IL-2 activity, HEK-Blue IL-2 reporter cells, IgG1 coated wells (no PD-1) | EC50 of IL-2 activity, HEK-Blue IL-2 reporter cells, PD-1 coated wells | Binder |
| --- | --- | --- |
| 1.79 nM | 0.05 nM | B11 |
| 0.419 nM | 0.057 nM | B12 |

Target: T1, human IL-2
Assay: HTRF, IL-2:Fc-IL2RB
Description: as §1

| IL2RB Blocking (HTRF signal) | Binder |
| --- | --- |
| 1550 | B1 |
| 1780 | B2 |
| 1070 | B3 |
| 1610 | B4 |
| 1610 | B5 |
| 1110 | B6 |
| 1210 | B7 |
| 910 | B8 |
| 1810 | B9 |
| 1610 | B10 |
